Experimental data from doi:10.1101/291427.

Target: T1, CSEP0064/BEC1054 (Blumeria graminis) (UniProt N1JJ94)
T1 sequence: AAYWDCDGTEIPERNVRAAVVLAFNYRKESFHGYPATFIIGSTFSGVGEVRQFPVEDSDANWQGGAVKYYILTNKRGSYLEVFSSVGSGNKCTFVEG
Assay: NMR

Work on SRL DNA oligonucleotide yielded a Kd of over 10 µM.
